Measured values published in patent publication US20140256625A1, “ANTI-AMYLOIDOGENIC, ALPHA-HELIX BREAKING ULTRA-SMALL PEPTIDE THERAPEUTICS” (AGENCY FOR SCIENCE, TECHNOLOGY AND RESEARCH, priority 2011, published 2014).
Ends that are not written are not given here.

Biological target: Ac-KE7 (Homo sapiens, UniProt P05067)
Assay: Rheology of Ac-KE7 mixed with inhibitor (storage modulus, gel vs solution)
Format: physicochemical
Details: 1.5 mM Ac-KE7 mixed with inhibitor in 1:20 molar ratio, 25° C.
From the text: Rheology. To determine the viscoelastic properties/behaviour, peptide-based hydrogels were subjected to dynamic time, strain and frequency sweep experiments using the ARES-G2 rheometer (TA Instruments, Piscataway, N.J.) with a 25.0 mm diameter stainless steel or titanium parallel plate geometry and a 0.8 mm or 1-2 mm gap distance. To ensure complete gelation and take account of the varying gelation speeds of different peptides at different concentrations, the rheology measurements were done 2 months after sample preparation. Oscillatory frequency sweep studies (measuring storage modulus (G′) vs. Angular frequency (ω)) were done at 0.1-100 rad/s using 1% strain. Oscillatory amplitude sweep studies (measuring storage modulus (G′) vs. oscillation strain % (γ)) were done using 0.01-100% strain with a constant angular frequency of 1 rad/s. All measurements were carried out at 25° C. […] The graphs display the storage moduli (G′ in Pa) as a function of (A) angular frequency (rad/sec) under 1% strain and (B) oscillation strain (%) at an angular frequency of 1 rad/sec at room temperature of 25° C. […] This can be seen from the rheological data, where the peptide-inhibitor solutions give a highly fluctuating curve for both the amplitude and frequency sweep measurements because they are in solution form; instead of a gel form.

| Substance | hydrogel formation of Ac-KE7 (rheology) |
| --- | --- |
| Ac-LPG (Ac-Leu-Pro-Gly) [N-acetylated tripeptide Leu-Pro-Gly] | no gelation |
| Ac-LPE (Ac-Leu-Pro-Glu) [N-acetylated tripeptide Leu-Pro-Glu] | no gelation |
